Test: soluble on expression in E. coli; label from the status in PepcDB or PDB records

Sequence	soluble on expression in E. coli
MLRHKEPGSGSGGGVYWVDSQQKRYVPVKGDHVIGIVTAKSGDIFKVDVGGSEPASLSYLSFEGATKRNRPNVQAISSRLLEHHHHHH	not soluble
MGSDKIHHHHHHMNKEAIESLLIHVIGTDVIVNEVRPIGGGNTSRAFAVKSSQGNFFIKTNRAGLVDMFEKEVKNLELLRKVLPSNTPEVVGYGTIDHVSYFILKLIEPGRRVADFWSDFGRTLSELHRVTGNTFGLEYDNYIGSLPQSNKQNSNWVDFFVNERIWPQAKKAEKVLGTEIVGMISKLSDRLPDLLTQSRPTLLHGDLWSGNFTLNQAGTVCLVDPATYYGNREIEIAFTKLFGGFEDEFYAAYSEVLPLDKGFFDTRADIYNLYPLLVHVNLFGGWYVASVRETLKRFV	not soluble
MDNEEYYKILGVAKSASQDEIKHAYRKMSKKYHPDLNHQPGAEDKYKQVQEAYETLGDPQKRAAYDQYGKAGANANNGQGGFGGFQQSGFNFNGQDFGDFSDIFSQMFGGSFNPNAPRKGRDLQYRINLTFEEAVFGKETEIKYVRQESGGNSKEHTVKVTIPAGVETGQQMRLAGQGEAGTHGGPYGDLYVEFIVGKSKDGFERQGANIYLEEPINFVQAALGDKIKVKTVHGDVELTIPAGTQTDTEFRLRGKGAPYVNSSRIGDEYVKVIVQVPKRLNEKEKKALKTYADLRGENVNPQKRRGLFG	not soluble
MAHHHHHHMSVRSGQFNYDAVARESPVGFTKITEGTTAVLEPPPKKKTCTSSAAPAPASNLSDEEADNQLVDQAVFYNPAQVVNRDLSISVIEVFSRLRLTEPRRRGGTNEGITILEALSATGLRAIRYYKEITNVRYIIANDMDADAVDCIVRNCAYNGVPVQYPTLMANMPAAAIELYAGEAEAEKGESATGASPRVGVRAGGAILPNLDDANDLMFRLAMNSNAHPGKRVCLVDAPAETSATASLRPLLQQELMDVVDLDPYGSASPFLDGAFRCIKEGGLMLVTSTDSAILCGNFADTAHAKYSSMPYKAAHCHEAAVRTLLACVERVANRHQKFIVPLLSLHIDFYVRCFFRVYKQPAETKLSACKLGYQLQCSSCSAFWVRPMATARQPRPSRQERRRQRRALAGRVNSDADEAEEEGKTAEGAAEASRAHARPRRLSKRVRDGSDDDEAVAHDVDGVRTEVYPASPSRHSHPKITPLTLQQMPSAASATSTTAATACPVCGSSIVLSGPLYAAPTQNCEFLQQLLALLHERASEGRLNAEARITGLVRIALEELPDCPLFYLLPDVASYVRVRCPPTPCIVGALARLGYRCSQVHCAAAGLKTDCPPEVLFRVMLQWKTVQDTLDPVGEATIEDGADKSKKKAPAASTAPRSLLVTPLAEADFTYDKAHDFRGRVTGVAKFVPNASGWGPRRRHRGAAAVPEAVECGNGEDNDGGSGEA	not soluble
MAHHHHHHMQSDARELNPGRADFWEHFYDQEDGRLRQKELHHRKAHEIVERGSLMNHYEWFMQYAMYEAALKACLRAVPTVLSKDGATRILHMGCGNSDFCDHVEGLLSDLHPVPSSSSRASEVLNVDICESIVAHLALHFPSRLYAVGNCCDLHVSSSPSMPFSSNAAWYSRDPALRLRKVLQSSVDVVFDKGTADALLSSFAGEYNPNMEAYMGEALKVLRPGGLLFLISINSEDVLSPYALSADDGLKSFHLAYTDVIELGAHDLRHLRVETLGSRYSCYGYAVVASAVAE	soluble
MSLNYSHAFHAGNHADVLKHIVLLALLDGLVRKETPFFVLDSHAGRGRYLLSAGESRNTREAESGVMRLIARPQRLEVIKRYVDVVQADNVSQTRAASTPMHISRYPGSSLLAAQVCRAQDRMVFCELHPKEAAALNALFVHDPRVRVHAGDGYAAVRAFLPPKVGTQRIGRGLVFIDPPYEAQDAEYPLVLGALRETLTRWPQAICAVWYPIKQRRRLQPFFRKAVGLPVRSVLIAELLVRLDDSPLRLNGSGMLLLNVPWQFDQLLAPALPVLKTQLGESGARTRLEWLKVPQEGHHHHHH	not soluble
AKTEQQIADIVNRTITPLMQEQAIPGMAVAIIYEGKPYYFTWGKADIANNHPVTQQTLFELGSVSKTFNGVLGGDAIARGEIKLSDPVTKYWPELTGKQWRGISLLHLATYTAGGLPLQIPDDITDKAALLRFYQNWQPQWTPGAKRLYANSSIGLFGALAVKPSGMSYEEAMTRRVLQPLKLAHTWITVPQSEQKNYAWGYREGKPVHVSPGQLDAEAYGVKSSVIDMARWVQANMDASHVQEKTLQQGIELAQSRYWRIGDMYQGLGWEMLNWPLKADSIINGSDSKVALAALPAVEVNPPVPAVKASWVHKTGSTGGFGSYVAFVPEKNLGIVMLANKSYPNPVRVEAAWRILEKLQ	soluble
MGSDKIHHHHHHMANSGQIRVGIGGWNFEPWEGTFYPDDLPKKRQLEFAGKELRTIEVNGTYYSSQKPATFAKWAAEVPDGFIFSLKASRFVTNRRVLSEAGESMERFLTQGLTELGDRLGPILWQFAPTKKFDAEDFEGFLKLLPEKQDGLKLRHVVEVRNPSFQVPDFVKLIEKYKVAVVLAEHADYPMIADVTGDFVYARLQKGSDEVKTCYPPKDLDRWAERLKTFAAGGEPDDLEKAAPERQPETAPRDVFAFFITSGKVNAPNGARELQKRVG	not soluble
MSLRGMRIDAYIAEHARKNPDQLALEDGKKSISYSCLDEDINKVASSLDGFEHCKFAILAESGIQYVKILMAVYRSGNIAIPLPIEMQGRSLERILDTACINNIIATKKQYSRFGDGFFERFGTVIVVSDDTSVETLSRRMILERNDPRLRLVLYTSGTTGTPKGVMLSDKNLVSNARSITGILSIGSKDKAALVISPHHAFGNSIINSHLMAGSSIQIGTMNFIDPVFSLIESGVSIFYGVPSTYRILLKYPERFRKAFQNVRTAASAGGAMDRTVVRSIRELSPDTQILPMYGQTEATARLSYLPAEDVDEFIDTIGKAIPGVTLEVFDTENRPVEPGVTGELVARGDNILLGYLNDEAATEKKIIDGWLHTGDLAQKLRCGYIKLLGRKDDLIKIGDHRVNPREIEKEIEMNNEVSSVFVVPVSHELMGNAISLMVIPNERTEIDTIFSFCRKNLPGYLYPREILFIDHLPLSENGKISNRSIIEEYQHVKASEGHHHHHH	soluble
MATAFTHSGKFHADDVFSAALLLYLNPEITITRGNRVPEDFDGIVFDIGRGRYDHHQKDSRVRENGIAYAAFGLLWEELGSEILGEELAQKFDEAFVQPLDNNDNTGEKNELASLIGNFNPTWDAEGSNDEAFFQAVSVAGMILENKFDRYRGNERADKRVEEIYERHMQAFHDREKHSEDAKILILPEFVPCQKFLSETPVAFVIFPSNRGGYCIQPQKKEYSMNYKCSFPSEWLGLENEELQEVTGLKTAGFCHKGGFLMTTGELADAVQACKISMEQFREKPVIVSFGGDTEYDELLHQIPKLQAAEIIHIDIQPLPEVEIQGIYAEVSMEKQEWKARIKEQVKQILKYKPEAVFVGENLFVAYPIVHALRKKHIPVLVPAEKDGQKLLIRIPSGSLEHHHHHH	soluble
METRLLVLKYDILNREAICLNRETHELLHANLVESVQPQIGQFLAVENLKIVQIDGVCFISPECGTIVIEPPAPEDCVILPKEKTDVVMFKSWIGFSSDPSHLTYDRNIGYADWYGPVNCSQFKAKNTKVAFFKYLIAVNDLDYKNTGECLMKAVQLVGVIDNRDAAEVRLKMMEFERKRIADIQRTTKQTRLIETVAYPILPSAHQPSSNHSYTGRSSCDSLRPQPVPAARKLSEQPQTVQNQAPYREQINQQRSVTNSIYGEFSGVGRTDQPLETANSRGSTEYYSGRSSSSSDQVIRNEPQLPNPAPILPESMGMVTYENGIMQIVYLRSVQKAAIHYWSKHQITTSLGSVFNCSFKPIPVQATTHWAPFEITAINNVNNEKNEVKTVGKECFALFKVDLSRPEGKFSKWTTIGGNPIFSCEIVGYVMLAHSVLGPQQNQLSILNVAQNYYNRKVAENICCFCRFVRRQVPRMMVDSHWISEDEEVEVFIWELVEIVGASELYRKRQEQLEIGNLGDTADNVKRHNDDIEMQKKRAQQEHFAQQQRPAGSSNSYQTENAQQHSMSNNMQYYHSQAPPVSSRSSISLGETAEFKNKLERTNDMMESLCDAIKKFLDNRQLKETLRGYNPRRLQALEEKLKECSEHLENN	not soluble
MKIRILGSGTSTGVPEIGCTCAVCTSKDPRDCRLRTSALVYTDDATILLDCGPDFREQMLRVPFGKIDAVLISHEHYDHVGGLDDLRPFCRFGEVPIYAETYTAERLRSRMPYCFVEHSYPGVPNIPLREIEPNRPFLVNHTEVLPLRVMHGKLPILGYRIGKLGYITDMLTMPDESFEQLQGIEVLVMNALRIAPHNTHQSLSEALEAVKRIGAKETWLIHMSHHIGLQADVEKQLPPHVHFAFDGLELECLEHHHHHH	not soluble

Source: the DeepSol protein solubility set
